Positions count from the first letter of the chain named.

The target of experiment [1] is T1, Histidine-tagged human Siglec-9 (NovoProtein) (human, UniProt Q9Y336 18-348).
T1 construct: Bought protein; also called Siglec-9-his tagged protein; His-tagged Siglec 9 antigen; not shown: histidine tag
Put plainly: SPR Biacore T200, 25 C, 25 nM mAb captured on anti-mouse IgG CM5 chip, His-tagged Siglec-9 100 nM as analyte, single-concentration 1:1 fit. Here is the method: Affinity constants (KD) were calculated from the ratio kd/kₐ.

The target in experiment [2] is T2, human Siglec-9 expressed on human cells (human, UniProt Q9Y336 18-463). The experiment in a line: cell-based or functional assay.
Experiment [3] addresses T2, human Siglec-9 expressed on human cells. Put plainly: flow cytometry on human primary macrophages, 10 ug/ml mAb, PE secondary. The procedure: (§1) Initial characterization of Siglec-9 antibodies involved determining their ability to bind Siglec-9 expressed on human primary monocytes, human primary macrophages, human primary dendritic cells, human primary neutrophils, and human primary natural killer (NK) cells. Cells were harvested, plated at 10⁶/ml in a 96 well plate, and incubated in 100ul PBS containing 2% FBS, 2 mM EDTA and 10 μg/ml Mab and Fc blocking reagent for 1 hour in ice. Cells were washed twice and incubated in 100ul PBS containing 2% FBS, 2 mM EDTA and 5 μg/ml PE-conjugated secondary antibody for 30 minutes on ice. Cells were washed twice in cold PBS and analyze by flow cytometry on a BD FACS Canto. Data analysis and calculation of MFI values was performed with FlowJo (TreeStar) software version 10.0.7.
(§2) Binding is compared to an isotype control. […] In Table 5, “Buffer” refers to cells that were treated only with the PBS buffer described supra; “Secondary Ab” refers to cells that were treated only with the PE-conjugated secondary antibody; and “mIgG1,” “mIgG2a,” and “mIgG2b” refer to isotype control antibodies.

Experiment [4] shares this target. Put plainly: flow cytometry on human primary monocytes, 10 ug/ml mAb, PE secondary. Here is the method: as §1, §2
In experiment [5] the target is T3, Siglec-9-Fc (R&D Systems, catalog number 1139-SL-050) (human, UniProt Q9Y336 18-348).
T3 construct: Bought fusion protein; also called Siglec-9-Fc fusion protein; not shown: human IgG1 Fc
The experiment in a line: FACS ligand competition: 25 ug/ml mAb pre-coupled with 25 ug/ml Siglec-9-Fc, binding to sialic acid ligands on U937 cells, anti-human IgG-PE. Here is the method:
To determine whether Siglec-9 antibodies block binding to sialic acid ligands, U937 cells, which robustly express sialic acid ligands that predominantly bind to Siglec-9, were utilized in a FACS-based protocol. Briefly, 25 μg/ml Siglec-9 antibodies were pre-coupled with 25 μg/ml Siglec-9-Fc (R&D Systems, catalog number 1139-SL-050) for 20 minutes on ice in binding buffer (PBS with 0.25% BSA and 1 mM CaCl₂) in 96-well round bottom plates. […] Cells were pelleted and resuspended in goat anti-human IgG-PE (SouthernBiotech catalog number 2040-09) secondary antibody at 1:2000 dilution in binding buffer for 30 minutes. Cells were then washed three times and analyzed by flow cytometry on a BD FACS Canto. Data were analyzed on FlowJo version 10.0.6 (TreeStar).

The target in experiment [6] is T2, human Siglec-9 expressed on human cells. Put plainly: flow cytometry on human primary dendritic cells, 10 ug/ml mAb, PE secondary. Here is the method:
as §1, §2

The target is the same in experiment [7]. The experiment in a line: cell-based or functional assay. The source holds these as a separate data set.
Experiment [8] deals with T1, Histidine-tagged human Siglec-9 …. The experiment in a line: BLI ForteBio Octet RED96, mAb on AMC tips, His-tagged Siglec-9 3.13-50 nM; assay 2; column head prints nM but kd/ka gives M. Here is the method: (§3) Antibodies were captured on anti-mouse IgG Fc capture (AMC) biosensor tips, after which a baseline was run for 60 seconds. A 15 minute association step was performed in a dilution series of His-tagged Siglec 9 antigen, ranging from 3.13 nM to 50 nM, after which dissociation was measured over 60 minutes. Affinity constants (KD) were calculated from the ratio kd/kₐ.

The target is the same in experiment [9]. Put plainly: BLI ForteBio Octet RED96, mAb on AMC tips, His-tagged Siglec-9 3.13-50 nM; assay 1; column head prints nM but kd/ka gives M. The procedure:
as §3

Experiment [10] shares this target. The experiment in a line: BLI ForteBio Octet RED96, mAb on AMC tips, His-tagged Siglec-9 3.13-50 nM; average of two assays. The procedure: as §3
The target is the same in experiment [11]. Put plainly: SPR Biacore T200, 25 C, 25 nM mAb captured on anti-mouse IgG CM5 chip, His-tagged Siglec-9 200 nM as analyte, single-concentration 1:1 fit.

T1 sequence (Q9Y336 18-348 limits assumed): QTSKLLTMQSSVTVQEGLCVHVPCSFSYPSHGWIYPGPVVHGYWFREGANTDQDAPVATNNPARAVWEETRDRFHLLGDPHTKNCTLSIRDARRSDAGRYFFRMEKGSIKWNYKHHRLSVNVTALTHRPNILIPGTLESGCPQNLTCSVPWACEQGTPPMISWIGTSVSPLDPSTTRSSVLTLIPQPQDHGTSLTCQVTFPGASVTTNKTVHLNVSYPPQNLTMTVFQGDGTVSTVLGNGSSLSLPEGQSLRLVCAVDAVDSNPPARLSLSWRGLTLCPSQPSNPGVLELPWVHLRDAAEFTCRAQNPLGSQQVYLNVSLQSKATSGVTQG
T3 sequence (Q9Y336 18-348 limits assumed): as above
T2 sequence (Q9Y336 18-463): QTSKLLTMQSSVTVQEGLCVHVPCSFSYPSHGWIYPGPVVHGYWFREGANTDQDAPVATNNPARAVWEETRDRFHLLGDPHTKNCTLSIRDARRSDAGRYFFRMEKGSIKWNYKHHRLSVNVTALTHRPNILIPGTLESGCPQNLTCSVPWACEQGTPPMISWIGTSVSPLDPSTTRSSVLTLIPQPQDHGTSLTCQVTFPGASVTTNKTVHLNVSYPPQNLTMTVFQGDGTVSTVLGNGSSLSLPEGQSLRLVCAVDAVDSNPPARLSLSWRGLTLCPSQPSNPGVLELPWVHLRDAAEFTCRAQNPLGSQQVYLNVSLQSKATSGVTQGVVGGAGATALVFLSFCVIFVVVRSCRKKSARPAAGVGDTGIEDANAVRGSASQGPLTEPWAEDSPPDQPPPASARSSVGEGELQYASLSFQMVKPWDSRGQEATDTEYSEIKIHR

B1: anti-Siglec-9 antibody 2D5 (antibody, IgG1, V domains shown)
VH: QVQLQQSGPELVKPGASVKISCKASGYAFSSYWMNWVKQRPGKGLEWIGRIYPRDGDTNYNGKFKGKATLTADKSSSTAYMQLSSLTSEDSAVYFCARWLLRFAYWGQGTLVTVSA
VL: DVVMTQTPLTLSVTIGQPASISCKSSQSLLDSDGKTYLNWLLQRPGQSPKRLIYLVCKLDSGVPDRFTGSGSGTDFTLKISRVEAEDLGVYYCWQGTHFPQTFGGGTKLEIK
B1 yielded a Kd in experiment [1] of 5.1 nM. Besides, in experiment [2], the “Percent Siglec-9 Surface Expression, Macrophages (% Siglec-9)” value was 94.6% and the “Percent Siglec-9 Surface Expression, Microglia (% Siglec-9)” value came to 90.6%. In experiment [3], the “% Positive” value turned out to be 93.2% and the MFI turned out to be 692. Also, in [4], the “% Positive” value stood at 9.1% and the MFI was 145. Moreover, the “Percent Siglec-9-Fc Binding” value in experiment [5] was 97.8%. For the same molecule, in [6], the “% Positive” value came to 34.2% and the MFI came out at 252. Moreover, in [7], the “Percent Siglec-9 Surface Expression, DCs (% Siglec-9)” value amounted to 94.3%; the “Percent Siglec-9 Surface Expression, Monocytes (% Siglec-9)” value was determined as 84.4%; the “Percent Siglec-9 Surface Expression, THP-1 cells (% Siglec-9)” value was 81.1%.

B2: anti-Siglec-9 antibody 5C6 (antibody, V domains shown)
VH: EVQLQQSGPELVKPGASVRISCKASGYTFTDYNIHWVKQSQGKSLEWIGYIYPYNGDTGYNQKFQNKATLTVDNSSSTAYMELRSLTSEDSAVYYCANGNYLYYYAMDYWGQGTSVTVSS
VL: DVVMTQTPLSLPVSLGDQVSISCSSSQSLVHSNGNTYLHWYLQKSGQSPKLLIYKVSNRFSGVPDRFRGSGSGTDFTLKISRVEAEDLGVYFCSQNTHVPLTFGAGTKLELK
notes: Murine antibody; also called S9-5C6; S9-5C6.3
For the molecule B2, the Kd in experiment [8] worked out at 0.557 nM; in experiment [9], 0.532 nM; in [10], 0.54 nM.

B3: anti-Siglec-9 antibody 12B12 (antibody, V domains shown)
VH: EVQLVESGGGLVQPGGSLKLSCAASGFTFSNYGMSWVRQILDKRLELVATINSNGGRTYYPDSVKGRFTISRDNAKNTLYLQMSSLRSEDTAIYYCVTYYRYDSYAMDYWGQGTSVTVSS
VL: DIVLTQSPASLAVSLGQRATISCRASENVDSYGISFMHWYQQKPGQPPKLLIYRASNLESGIPARFSGSGSRTDFTLTINPVEADDVATYYCQQSNEDPWTFGGGTKLEIK
notes: Murine antibody; also called S9-12B12; S9-12B12.2
As to B3, the Kd was determined as 0.879 nM in experiment [8], 0.639 nM in [9] and 0.76 nM in experiment [10].

B4: anti-Siglec-9 antibody 7H12 (antibody, V domains shown)
VH: QVQLQQSGAEVVKPGASVKLSCKAFGYTFTSYWMHWVKQRPGQGLEWIGEINPRDGVSNCNEKFTSKATLTVDTSSNTAYMQLNNLTSEDSAVYYCTIWEDYFDYWGQGTTLTVST
VL: NVZMTQTPLTLSVTLGQPASISCKSSQSLLYTNGKTYLNWLLQRPGQSPKLLIYLVSKLESGVPDRFSGSGSGTDFTLKINRVEAEDLGVYFCLQAPHFPLTFGGGTKLEMK
notes: the asterisk is not explained; the printed VL holds a 'Z' at position 3
As to B4, the Kd in experiment [11] turned out to be 9 nM. In addition, in experiment [2], the “Percent Siglec-9 Surface Expression, Macrophages (% Siglec-9)” value was found to be 34.2% and the “Percent Siglec-9 Surface Expression, Microglia (% Siglec-9)” value stood at 54.7%. Also, in [3], the “% Positive” value turned out to be 94.8% and the MFI stood at 467. Moreover, in [4], the “% Positive” value was determined as 38.3% and the MFI came out at 216. In [5], the “Percent Siglec-9-Fc Binding” value was 97.8%. In experiment [6], the “% Positive” value is 60.5% and the MFI worked out at 331. In experiment [7], the “Percent Siglec-9 Surface Expression, DCs (% Siglec-9)” value worked out at 66.2%; the “Percent Siglec-9 Surface Expression, Monocytes (% Siglec-9)” value is 48.4%; the “Percent Siglec-9 Surface Expression, THP-1 cells (% Siglec-9)” value was 68.9%.

B5: anti-Siglec-9 antibody 5B1 (antibody, IgG1, V domains shown)
VH: B4 VH
VL: B4 VL with Z3V, F92Y, P97T, G105A, M111L
In experiment [1], B5 gave a Kd of 2.7 nM. Besides, in [2], the “Percent Siglec-9 Surface Expression, Macrophages (% Siglec-9)” value came out at 24.8% and the “Percent Siglec-9 Surface Expression, Microglia (% Siglec-9)” value was 27.5%. Besides, in experiment [3], the “% Positive” value was found to be 98.7% and the MFI worked out at 621. Further, in experiment [4], the “% Positive” value came out at 75.9% and the MFI stood at 310. Further, in experiment [5], the “Percent Siglec-9-Fc Binding” value was found to be 97.8%. In experiment [6], the “% Positive” value came to 97.8% and the MFI came out at 646. Also, in experiment [7], the “Percent Siglec-9 Surface Expression, DCs (% Siglec-9)” value was 39.2%; the “Percent Siglec-9 Surface Expression, Monocytes (% Siglec-9)” value was 31.2%; the “Percent Siglec-9 Surface Expression, THP-1 cells (% Siglec-9)” value is 61.6%.
